Broadly, the Kd is the free concentration of one partner at which half of the binding sites on the other are occupied at equilibrium, for simple one-to-one binding.

The test addresses ^15N-labeled intersectin 1-SH3A domain (UniProt Q15811). The test can be described thus: NMR titration.
Sequence of UniProt Q15811 (Q15811 740-806): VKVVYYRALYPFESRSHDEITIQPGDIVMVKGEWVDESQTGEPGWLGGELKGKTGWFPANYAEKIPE

“SH3A–B interdomain linker-derived peptide of intersectin 1, dephosphorylated” registered a dissociation constant Kd of 275 µM. Under “SH3A–B interdomain linker-derived peptide of intersectin 1, T832 and T839 phosphorylated” stands 793 µM.

For the origin of these results see article PMC5692602.
